Experimental data as given in patent publication US20260116920A1 (PEPTIDREAM, published 2026).
Starred links: 1 amine or outer side, 2 acyl side, 3 side chain; linkers in the order of their positions; H or OH if unused. Positions of bridges follow the written chain, without caps; N, C: chain ends. Non-standard residues stand in square brackets, D forms with d. Primed or numbered codes have the meaning given here. No end group written: not given here. *: point of attachment. MeF3COO(PEG4Me) = (S)-3-(3-((2,5,8,11-tetraoxatridecan-13-yl)carbamoyl)phenyl)-2-(methylamino)propanoic acid, COCCOCCOCCOCCNC(=O)c1cccc(C[C@@H](C(=O)[*:2])N(C)[*:1])c1; MeF4COO(PEG4Me)″ = N-methyl-4-carboxy-Phe with the carboxyl amidated by a methyl-capped PEG4 amine, COCCOCCOCCOCCNC(=O)c1ccc(C[C@@H](C(=O)[*:2])N(C)[*:1])cc1; F3COO(PEG4Me) = (S)-3-(3-((2,5,8,11-tetraoxatridecan-13-yl)carbamoyl)phenyl)-2-aminopropanoic acid, COCCOCCOCCOCCNC(=O)c1cccc(C[C@H](N[*:1])C(=O)[*:2])c1; F3COO(PEG4Me)″ = 3-carboxy-Phe with the carboxyl amidated by a methyl-capped PEG4 amine, COCCOCCOCCOCCNC(=O)c1cccc(C[C@H](N[*:1])C(=O)[*:2])c1; E(PEG4Me) = (S)-18-amino-15-oxo-2,5,8,11-tetraoxa-14-azanonadecane-19-oic acid, COCCOCCOCCOCCNC(=O)CC[C@H](N[*:1])C(=O)[*:2]; MeF4COO(PEG4Me) = N-methyl Phe with 4-carboxamide to PEG4Me amine, COCCOCCOCCOCCNC(=O)c1ccc(C[C@@H](C(=O)[*:2])N(C)[*:1])cc1; KCOpipzaa = N6-(4-(carboxymethyl)piperazine-1-carbonyl)-L-lysine, O=C(NCCCC[C@H](N[*:1])C(=O)[*:2])N1CCN(CC(=O)[*:3])CC1; Phe(4-OMe)(3) = (S)-2-amino-3-(4-methoxyphenyl)propanoic acid (source code F4OMe), COc1ccc(C[C@H](N[*:1])C(=O)[*:2])cc1; F4aao = (S)-2-amino-3-(4-(carboxymethoxy)phenyl)propanoic acid, O=C([C@H](Cc1ccc(OCC(=O)[*:3])cc1)N[*:1])[*:2]; MePEG4c = K(MePEG4c) = (S)-20-amino-14-oxo-2,5,8,11-tetraoxa-15-azahenicosane-21-oic acid, COCCOCCOCCOCCC(=O)*; Phe(4-OMe) = F4OMe = (S)-2-amino-3-(4-methoxyphenyl)propanoic acid, COc1ccc(C[C@H](N[*:1])C(=O)[*:2])cc1; Trp(1-CH2CO) = O=C([C@H](Cc1cn(CC(=O)[*:3])c2ccccc12)N[*:1])[*:2]; MeF3COO(PEG4Me)″ = N-methyl analogue of F3COO(PEG4Me); Trp(5-Cl) = N[C@@H](Cc1c[nH]c2ccc(Cl)cc12)C(=O)O; Nle(6-morpholino) = N[C@@H](CCCCN1CCOCC1)C(=O)O; Trp(7-aza) = N[C@@H](Cc1c[nH]c2ncccc12)C(=O)O; NMePhe(3-Cl) = CN[C@@H](Cc1cccc(Cl)c1)C(=O)O; NMePhe(4-F) = CN[C@@H](Cc1ccc(F)cc1)C(=O)O; 3Pal(6-NH2) = Nc1ccc(C[C@H](N)C(=O)O)cn1; NMeW = CN[C@@H](Cc1c[nH]c2ccccc12)C(=O)O; NMeY = CN[C@@H](Cc1ccc(O)cc1)C(=O)O; Lys(Me2) = CN(C)CCCC[C@H](N)C(=O)O; NMeR = CN[C@@H](CCCNC(=N)N)C(=O)O; NMeF = CN[C@@H](Cc1ccccc1)C(=O)O; 4Pal = N[C@@H](Cc1ccncc1)C(=O)O

Target: T1, human transferrin receptor (hTfR) (human, UniProt P02786 89-760)
T1 construct: used as 0.5 uM hTfR dimer solution, immobilised on an NTA sensor chip (Ni capture plus EDC/NHS coupling); also called human TfR; TfR1
T1 sequence (P02786 89-760 limits assumed): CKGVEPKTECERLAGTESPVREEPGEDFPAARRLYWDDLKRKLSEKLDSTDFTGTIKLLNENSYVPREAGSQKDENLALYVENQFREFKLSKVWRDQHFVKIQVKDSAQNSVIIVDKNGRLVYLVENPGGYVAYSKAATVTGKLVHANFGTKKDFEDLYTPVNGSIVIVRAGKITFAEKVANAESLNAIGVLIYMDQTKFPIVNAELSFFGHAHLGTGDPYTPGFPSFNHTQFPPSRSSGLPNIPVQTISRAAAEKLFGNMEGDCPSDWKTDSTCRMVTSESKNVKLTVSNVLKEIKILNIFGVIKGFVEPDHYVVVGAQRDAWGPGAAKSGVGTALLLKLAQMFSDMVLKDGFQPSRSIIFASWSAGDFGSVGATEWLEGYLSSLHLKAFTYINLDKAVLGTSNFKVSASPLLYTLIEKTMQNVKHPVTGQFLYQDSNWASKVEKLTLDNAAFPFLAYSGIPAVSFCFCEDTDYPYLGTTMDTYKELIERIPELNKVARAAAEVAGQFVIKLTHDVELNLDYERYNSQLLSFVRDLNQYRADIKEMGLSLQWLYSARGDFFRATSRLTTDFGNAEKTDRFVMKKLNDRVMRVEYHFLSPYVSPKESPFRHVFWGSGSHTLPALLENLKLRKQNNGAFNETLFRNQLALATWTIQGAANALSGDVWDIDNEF
Assay: SPR; B = KD 1-100 nM
Procedure: NTA sensor chip (Global Life Sciences Technologies Japan K.K.) was inserted into BiacoreT200 (Global Life Sciences Technologies Japan K.K.), then the priming operation was performed three times by using running buffer containing: 10 mM HEPES pH 8.0 (Nacalai Tesque, Inc.), 150 mM NaCl (Nacalai Tesque, Inc.), 0.05% Tween 20 (Nacalai Tesque, Inc.), 0.1% BSA (SIGMA-ALDRICH) and 1.0% DMSO (FUJIFILM Wako Pure Chemical Corporation), and equilibrated at a flow rate of 30 μL/min. 350 mM EDTA solution was reacted at a flow rate of 10 μL/min for 60 seconds, 0.5 mM […] solution (Kishida Chemical Co., Ltd.) was reacted at a flow rate of 10 μL/min for 60 seconds, and then the NTA sensor chip was washed with 3 mM EDTA solution (Nacalai Tesque, Inc.) at a flow rate of 10 μL/min for 60 seconds. After mixing 50 μL each of 60 mM EDC solution (Global Life Science Technologies Japan K.K.) and 650 mM NHS solution (Global Life Science Technologies Japan K.K.), the reaction was carried out at a flow rate of 10 μL/min for 420 seconds. 150 μL of 0.5 μM hTfR dimer solution was prepared by dilution with running buffer and reacted at a flow rate of 10 μL/min for 300 seconds to immobilize hTfR on the NTA sensor chip. For the human transferrin receptor (hTfR), recombinant hTfR described in Example 2 of WO2018/124121 was used. After immobilization, capping was performed by reacting with 1.0 M ethanolamine solution (Global Life Sciences Technologies Japan K.K.) at a flow rate of 10 μL/min for 420 seconds. Peptide lysate prepared in DMSO solution to 10 mM was diluted with running buffer to be a final concentration of 10 μM peptide lysate, then peptide solutions of 100 nM, 50 nM, 25 nM, 10 nM, and 5 nM were prepared. Using the above samples, the kinetics of the peptide against hTfR was obtained by SPR measurement.
The kinetic evaluation model was single-cycle kinetics, and curve fitting was performed using Biacore T200 Evaluation Software Version 3.0 (Global Life Science Technologies Japan K.K.). The binding of the peptide to hTfR was evaluated by performing curve fitting on the obtained sensorgram by least squares method and obtaining the KD value.

Binder	KD [nM]
{CH2CO}-AV[NMePhe(3-Cl)]VWNY[Phe(4-OMe)(3)]IIRRF[NMeY]C (thioether N-15; not fully specified (C-terminus)) [894_3149]	1 to 100
{CH2CO}-AV[NMePhe(3-Cl)]VWNY[F4aao]II[E(PEG4Me)]RF[NMeY]C-NH2 (thioether N-15; also: linker PEG4c, place not given here) [849_0398]	1 to 100
{CH2CO}-AV[NMePhe(3-Cl)]V[Trp(1-CH2CO)]NY[F4aao]II[E(PEG4Me)][KCOpipzaa]F[NMeY]C-NH2 (thioether N-15; also: linker PEG4c, place not given here) [849_0400]	1 to 100
{CH2CO}-AV[NMePhe(3-Cl)]VWNY[F4aao]II[E(PEG4Me)][KCOpipzaa]F[NMeY]C-NH2 (thioether N-15; also: linker PEG4c, place not given here) [849_0401]	1 to 100
{CH2CO}-AV[NMePhe(3-Cl)]V[Trp(1-CH2CO)]N[3Pal(6-NH2)][F4aao]II[E(PEG4Me)]R[4Pal][NMeY]C-NH2 (thioether N-15; also: linker PEG4c, place not given here) [849_0402]	1 to 100
{CH2CO}-AV[NMePhe(3-Cl)]VWN[3Pal(6-NH2)][F4aao]II[E(PEG4Me)][KCOpipzaa][4Pal][NMeY]C-NH2 (thioether N-15; also: linker PEG4c, attachment site not given here) [849_0403]	1 to 100
{CH2CO}-AV[NMePhe(3-Cl)]VWNY[F4aao]II[E(PEG4Me)][Nle(6-morpholino)]F[NMeY]C-NH2 (thioether N-15; also: linker PEG4c, attachment site not given here) [849_0405]	1 to 100
{CH2CO}-AV[NMePhe(3-Cl)]VWNY[F4aao]II[E(PEG4Me)]KF[NMeY]C-NH2 (thioether N-15; also: linker PEG4c, attachment site not given here) [849_0406]	1 to 100
{CH2CO}-AV[NMePhe(3-Cl)]VWNY[F4aao]II[E(PEG4Me)][Lys(Me2)]F[NMeY]C-NH2 (thioether N-15; also: linker PEG4c, attachment site not given here) [849_0407]	1 to 100
{CH2CO}-AV[NMePhe(3-Cl)]VWNY[F4aao]II[E(PEG4Me)]QF[NMeY]C-NH2 (thioether N-15; also: linker PEG4c, attachment site not given here) [849_0408]	1 to 100
{CH2CO}-AV[NMePhe(3-Cl)]VWNY[F4aao]II[E(PEG4Me)]R[E(PEG4Me)][NMeY]C-NH2 (thioether N-15; also: linker PEG4c, attachment site not given here) [849_0409]	1 to 100
{CH2CO}-AV[NMePhe(3-Cl)]VWNY[F4aao]II[E(PEG4Me)]R[E(PEG4Me)][NMeY]C-NH2 (thioether N-15; also: linker G-ds-ds-ds-ds-ds, attachment site not given here) [849_0410]	1 to 100
{CH2CO}-AV[NMePhe(3-Cl)]VWNY[F4aao]II[E(PEG4Me)]R[F3COO(PEG4Me)″][NMeY]C-NH2 (thioether N-15; also: linker PEG4c, attachment site not given here) [849_0411]	1 to 100
{CH2CO}-AV[NMePhe(3-Cl)]VWNY[F4aao]IIQR[F3COO(PEG4Me)″][MeF4COO(PEG4Me)″]C-NH2 (thioether N-15; also: linker PEG4c, attachment site not given here) [849_0412]	1 to 100
{CH2CO}-AV[NMePhe(3-Cl)]VWNY[F4aao]IIQR[F3COO(PEG4Me)″][MeF3COO(PEG4Me)]C-NH2 (thioether N-15; also: linker PEG4c, attachment site not given here) [849_0413]	1 to 100
{CH2CO}-AV[NMePhe(3-Cl)]VWNY[F4aao]IIQR[F3COO(PEG4Me)][MeF3COO(PEG4Me)″]C-NH2 (thioether N-15; also: linker G-ds-ds-ds-ds-ds, attachment site not given here) [849_0414]	1 to 100
{CH2CO}-AV[NMePhe(3-Cl)]V[Trp(7-aza)]NY[F4aao]II[E(PEG4Me)]R[F3COO(PEG4Me)][NMeY]C-NH2 (thioether N-15; also: linker PEG4c, attachment site not given here) [849_0415]	1 to 100
{CH2CO}-AV[NMePhe(3-Cl)]V[Trp(7-aza)]NY[F4aao]IIQR[F3COO(PEG4Me)][MeF4COO(PEG4Me)]C-NH2 (thioether N-15; also: linker PEG4c, attachment site not given here, also called 894_0416) [849_0416]	1 to 100
{CH2CO}-AV[NMePhe(3-Cl)]V[Trp(7-aza)]NY[F4aao]IIQR[F3COO(PEG4Me)][MeF3COO(PEG4Me)″]C-NH2 (thioether N-15; also: linker PEG4c, place not given here) [849_0417]	1 to 100
{CH2CO}-AV[NMePhe(3-Cl)]V[Trp(7-aza)]NY[F4aao]IIERFYC-NH2 (thioether N-15; not fully specified (residues 11, 14); also: linker PEG4c, place not given here) [849_0418]	1 to 100
{CH2CO}-AV[NMeF]V[Trp(5-Cl)]NYYIIR[dR]FYC-NH2 (thioether N-15; not fully specified (residue 14); also: linker PEG4c, place not given here) [894_0252]	1 to 100
{CH2CO}-AV[NMePhe(4-F)]V[Trp(5-Cl)]NYYIIR[dR]FYC-NH2 (thioether N-15; not fully specified (residue 14); also: linker PEG4c, place not given here) [894_0256]	1 to 100
{CH2CO}-AV[NMePhe(4-F)]V[NMeW]NYYIIR[dR]FYC-NH2 (thioether N-15; not fully specified (residue 14); also: linker PEG4c, place not given here) [894_0260]	1 to 100
{CH2CO}-AV[NMeF]VWNYYIIK(MePEG4c)RFYC-NH2 (thioether N-15; not fully specified (residue 14)) [894_0263]	1 to 100
{CH2CO}-AV[NMeF]VWNYYIIRK(MePEG4c)FYC-NH2 (thioether N-15; not fully specified (residue 14)) [894_0264]	1 to 100
{CH2CO}-AV[NMePhe(4-F)]V[Trp(5-Cl)]NYYII[NMeR]K(MePEG4c)FYC-NH2 (thioether N-15; not fully specified (residue 14)) [894_0267]	1 to 100
{CH2CO}-AV[NMePhe(4-F)]V[Trp(5-Cl)]NY[Phe(4-OMe)]II[NMeR]K(MePEG4c)FYC-NH2 (thioether N-15; not fully specified (residue 14)) [894_0268]	1 to 100
